Key:
[1] = molecular target: FGFR1-RE kinase domain (R577E mutant, aa 458-765) (human) (UniProt P11362)
[2] = molecular target: wt-FGFR1 kinase domain (aa 458-765) (human) (UniProt P11362)

in vitro trans phosphorylation of purified kinase domains with ATP and Mg2+, native gel [1] [min]	in vitro trans phosphorylation of purified kinase domains with ATP and Mg2+, native gel [2] [min]	Substance
< 30		FGFR1-RE kinase domain (R577E mutant, aa 458-765) (from UniProt P11362) (enzyme)
	< 10	wt-FGFR1 kinase domain (aa 458-765) (from UniProt P11362) (enzyme)

From patent publication US20120328599A1
